Source: patent US20210395323A1

Biological target: TNFR2 on human cells (Kym-1 cells; human CD3+ T cells) (human) (UniProt P20333)
Test: cell-based or functional assay

TNFR2 on human cells (Kym-1 cells; human CD3+ T cells) (human), sequence (P20333 23-461): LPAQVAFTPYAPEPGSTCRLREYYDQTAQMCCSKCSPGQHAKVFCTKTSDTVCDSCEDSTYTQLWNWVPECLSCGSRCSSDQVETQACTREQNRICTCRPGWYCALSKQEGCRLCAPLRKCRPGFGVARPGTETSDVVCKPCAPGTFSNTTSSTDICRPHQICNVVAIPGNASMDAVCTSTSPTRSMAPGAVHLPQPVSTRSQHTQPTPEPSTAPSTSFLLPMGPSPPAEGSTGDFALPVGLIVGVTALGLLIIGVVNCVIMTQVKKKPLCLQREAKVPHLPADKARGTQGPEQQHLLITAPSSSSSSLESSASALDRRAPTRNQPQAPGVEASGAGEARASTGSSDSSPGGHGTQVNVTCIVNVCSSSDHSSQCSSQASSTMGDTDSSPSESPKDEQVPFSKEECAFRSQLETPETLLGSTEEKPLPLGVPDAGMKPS

VASP-scTNFR2 (ligand) showed an EC50 of Kym-1 cell viability (crystal violet assay after 16 h) of 7 µM.

“human single-chain TNF variant (D143N/A145R, scTNFR2) (from UniProt Q8HZD9 77-232) (ligand)” gave an EC50 values (nM) of cell death induction using Kym-1 cells of 0.347 nM.

With scTNFR2-Fc-scTNFR2 (Fc fusion) the EC50 of Kym-1 cell viability (crystal violet assay after 16 h) was 8.5 µM.
